# Legend:
# [1] = tested on: T1, GdhR (Neisseria gonorrhoeae FA19), ORF:8165ddaf; assay: competition; conditions: EMSA: 12 fmol DIG-DNA in 20 uL, 20 mM Hepes pH 7.6, 1 mM EDTA, 10 mM (NH4)2SO4, 1 mM DTT, 0.2% Tween-20, 30 mM KCl, 1.25 ng/uL calf thymus DNA, 25 min, 30 C
# T1 sequence: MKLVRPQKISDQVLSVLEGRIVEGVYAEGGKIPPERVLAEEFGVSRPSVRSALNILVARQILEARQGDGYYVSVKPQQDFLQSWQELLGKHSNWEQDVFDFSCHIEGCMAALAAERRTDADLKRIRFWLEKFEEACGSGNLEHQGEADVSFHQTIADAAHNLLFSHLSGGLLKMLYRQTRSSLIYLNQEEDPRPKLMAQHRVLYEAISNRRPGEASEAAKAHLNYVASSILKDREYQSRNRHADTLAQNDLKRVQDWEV
# [2] = tested on: T1, GdhR (Neisseria gonorrhoeae FA19), ORF:8165ddaf; assay: EMSA; conditions: EMSA: 12 fmol DIG-DNA in 20 uL, 20 mM Hepes pH 7.6, 1 mM EDTA, 10 mM (NH4)2SO4, 1 mM DTT, 0.2% Tween-20, 30 mM KCl, 1.25 ng/uL calf thymus DNA, 25 min, 30 C
Sequence,binding [1],binding [2]
"GTGGACGGGGACGGCGCGGTATTCGTGCCGCCGGAAGAATGCTGAAAATGCCGTCTGAAGCCTTTCGGGCGGCTTTTTCTACACGCCCCTTTCCCACACTCCCTCCGCCGCATCATCACCATCCTTAACCCGCATTAATAGCCATTATCGATAAAATGCTTGACCGATTACATAAGATTACGTAAAGTGTGCAAACGCATAATAATTGGTCTTACCAATTTATCTTTTAACCAAAATATCGGGTGTGCGGGATTTGAACGTCTTTCCAAACCTCGACGCGCCTTATGATGC (double strand) [lctP promoter, unlabeled competitor]",binds,
CGTAGGGTGCGAGCGTTAATCGGAATTACTGGGCGTAAAGCGGGCGCAGACGGTTACTTAAGCAGGATGTGAAATCCCCGGGCTCAACCCGGGAACTGCGTTCTGAACTGGGTGACTCGAGTGTGTCAGAGGGAGGTGGAATTCCACGTGTAGCAGTGAAATGCGTAGAGATGTGGAGGAATACCGATGG (double strand) [16S rRNA gene fragment],no binding,
GTGGACGGGGACGGCGCGGTATTCGTGCCGCCGGAAGAATGCTGAAAATGCCGTCTGAAGCCTTTCGGGCGGCTTTTTCTACACGCCCCTTTCCCACACTCCCTCCGCCGCATCATCACCATCCTTAACCCGCATTAATAGCCATTATCGATAAAATGCTTGACCGATTACATAAGATTACGTAAAGTGTGCAAACGCATATCTTTTAACCAAAATATCGGGTGTGCGGGATTTGAACGTCTTTCCAAACCTCGACGCGCCTTATGATGC (double strand) [lctPΔFadR EMSA probe],,binds more weakly

# Source: publication PMC6957213
